Publication PMC7229842, “Molecular basis of the multifaceted functions of human leucyl-tRNA synthetase in protein synthesis and beyond” (Nucleic Acids Research, 2020)

Columns and labels:
[1] = target: T1, Human cytosolic glutamyl-prolyl-tRNA synthetase (human, UniProt P07814 1-1512); assay: pull-down; in vitro assembly of the MSC as in a2 but lacking IRS; anti-Flag beads on MRS-Flag; settings: both partners purified
T1 construct: human cytosolic EPRS, gene cloned from the cDNA of HEK293 cells; also called EPRS; source: recombinant from a modified pET28b, purified (Ni-NTA, gel filtration)

[2] = target: T2, Human cytosolic isoleucyl-tRNA synthetase (human, UniProt P41252 1-1262); assay: pull-down; in vitro assembly of the MSC as in a2 but lacking hcLRS; anti-Flag beads on MRS-Flag; settings: both partners purified
T2 construct: human cytosolic isoleucyl-tRNA synthetase (IRS), gene cloned from the cDNA of HEK293 cells; also called IRS; source: recombinant from a modified pET28b, purified (Ni-NTA, gel filtration)
T2 sequence (looked up): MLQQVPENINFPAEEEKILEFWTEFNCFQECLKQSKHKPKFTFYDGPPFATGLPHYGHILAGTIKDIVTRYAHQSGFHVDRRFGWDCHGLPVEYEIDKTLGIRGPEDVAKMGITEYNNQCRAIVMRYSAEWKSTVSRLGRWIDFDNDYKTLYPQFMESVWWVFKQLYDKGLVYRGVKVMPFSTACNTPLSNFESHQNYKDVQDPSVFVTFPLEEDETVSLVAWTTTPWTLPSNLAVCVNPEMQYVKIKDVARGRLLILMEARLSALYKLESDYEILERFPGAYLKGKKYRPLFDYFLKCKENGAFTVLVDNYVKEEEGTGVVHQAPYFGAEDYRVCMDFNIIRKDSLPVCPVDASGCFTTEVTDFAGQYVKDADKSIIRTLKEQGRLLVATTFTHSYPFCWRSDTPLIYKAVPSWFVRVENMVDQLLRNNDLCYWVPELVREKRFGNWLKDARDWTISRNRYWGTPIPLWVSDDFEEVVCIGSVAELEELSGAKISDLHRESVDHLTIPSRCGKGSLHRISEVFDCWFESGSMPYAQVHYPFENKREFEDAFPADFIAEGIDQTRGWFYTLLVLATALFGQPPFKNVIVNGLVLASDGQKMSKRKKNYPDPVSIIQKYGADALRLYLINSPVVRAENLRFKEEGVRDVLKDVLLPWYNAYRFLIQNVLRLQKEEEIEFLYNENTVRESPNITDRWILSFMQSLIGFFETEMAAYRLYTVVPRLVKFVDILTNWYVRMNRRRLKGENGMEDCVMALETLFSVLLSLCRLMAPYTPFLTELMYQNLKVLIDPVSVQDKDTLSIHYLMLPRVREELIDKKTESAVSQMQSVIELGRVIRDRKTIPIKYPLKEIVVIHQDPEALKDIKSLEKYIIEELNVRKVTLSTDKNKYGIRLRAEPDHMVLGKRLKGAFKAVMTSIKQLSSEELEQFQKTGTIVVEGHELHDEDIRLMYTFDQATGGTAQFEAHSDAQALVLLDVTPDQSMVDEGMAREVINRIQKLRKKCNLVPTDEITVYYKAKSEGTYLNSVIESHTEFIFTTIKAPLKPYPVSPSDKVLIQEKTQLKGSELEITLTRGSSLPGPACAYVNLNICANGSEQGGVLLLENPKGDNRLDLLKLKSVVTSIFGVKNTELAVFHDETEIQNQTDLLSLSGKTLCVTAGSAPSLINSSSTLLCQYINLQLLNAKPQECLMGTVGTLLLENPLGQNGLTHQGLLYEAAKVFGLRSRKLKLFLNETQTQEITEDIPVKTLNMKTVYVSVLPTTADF

T1 sequence (P07814 whole entry): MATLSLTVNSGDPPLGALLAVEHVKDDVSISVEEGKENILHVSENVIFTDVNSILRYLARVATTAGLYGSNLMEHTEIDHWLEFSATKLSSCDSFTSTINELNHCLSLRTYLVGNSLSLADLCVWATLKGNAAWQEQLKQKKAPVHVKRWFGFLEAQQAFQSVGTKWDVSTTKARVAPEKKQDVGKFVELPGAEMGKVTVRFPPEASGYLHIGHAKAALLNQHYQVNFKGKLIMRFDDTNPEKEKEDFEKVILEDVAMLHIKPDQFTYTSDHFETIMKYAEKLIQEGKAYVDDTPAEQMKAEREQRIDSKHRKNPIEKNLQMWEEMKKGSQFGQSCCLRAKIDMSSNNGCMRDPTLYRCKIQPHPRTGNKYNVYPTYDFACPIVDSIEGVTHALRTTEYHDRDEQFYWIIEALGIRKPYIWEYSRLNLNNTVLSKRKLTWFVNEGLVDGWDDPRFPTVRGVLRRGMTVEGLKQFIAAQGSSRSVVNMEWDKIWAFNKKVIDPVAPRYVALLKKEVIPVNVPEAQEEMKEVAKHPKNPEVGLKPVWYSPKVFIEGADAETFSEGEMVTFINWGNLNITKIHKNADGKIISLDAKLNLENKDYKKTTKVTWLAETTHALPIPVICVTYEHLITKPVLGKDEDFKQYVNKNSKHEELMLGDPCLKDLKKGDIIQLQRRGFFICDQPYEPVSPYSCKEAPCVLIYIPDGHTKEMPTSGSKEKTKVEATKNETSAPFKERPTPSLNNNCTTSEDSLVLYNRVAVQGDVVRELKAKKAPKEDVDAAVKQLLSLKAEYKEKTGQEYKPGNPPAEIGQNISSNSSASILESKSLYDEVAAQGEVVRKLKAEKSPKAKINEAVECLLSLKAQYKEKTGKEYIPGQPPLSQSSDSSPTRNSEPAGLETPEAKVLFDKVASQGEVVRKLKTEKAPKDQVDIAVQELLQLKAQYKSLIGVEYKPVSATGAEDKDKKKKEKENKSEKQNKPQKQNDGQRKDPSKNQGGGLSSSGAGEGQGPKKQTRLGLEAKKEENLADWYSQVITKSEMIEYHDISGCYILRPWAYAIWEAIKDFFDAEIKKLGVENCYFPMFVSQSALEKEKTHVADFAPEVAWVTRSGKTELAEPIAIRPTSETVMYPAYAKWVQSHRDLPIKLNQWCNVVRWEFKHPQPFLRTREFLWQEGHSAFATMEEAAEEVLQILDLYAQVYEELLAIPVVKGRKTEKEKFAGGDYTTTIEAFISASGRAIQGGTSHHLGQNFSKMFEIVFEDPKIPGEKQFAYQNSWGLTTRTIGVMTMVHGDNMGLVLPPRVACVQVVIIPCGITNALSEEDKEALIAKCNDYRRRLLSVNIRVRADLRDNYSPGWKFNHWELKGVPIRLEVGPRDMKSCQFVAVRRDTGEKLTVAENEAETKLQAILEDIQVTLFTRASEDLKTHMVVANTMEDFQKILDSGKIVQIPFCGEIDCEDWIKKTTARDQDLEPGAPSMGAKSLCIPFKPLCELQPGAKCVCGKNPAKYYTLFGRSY

binding result [1]: binds
binding result [2]: binds
B1: MRS-AIMP3 complex (human cytosolic methionyl-tRNA synthetase co-expressed with AIMP3) (complex)
chain 1: MRLFVSDGVPGCLPVLAAAGRARGRAEVLISTVGPEDCVVPFLTRPKVPVLQLDSGNYLFSTSAICRYFFLLSGWEQDDLTNQWLEWEATELQPALSAALYYLVVQGKKGEDVLGSVRRALTHIDHSLSRQNCPFLAGETESLADIVLWGALYPLLQDPAYLPEELSALHSWFQTLSTQEPCQRAAETVLKQQGVLALRPYLQKQPQPSPAEGRAVTNEPEEEELATLSEEEIAMAVTAWEKGLESLPPLRPQQNPVLPVAGERNVLITSALPYVNNVPHLGNIIGCVLSADVFARYSRLRQWNTLYLCGTDEYGTATETKALEEGLTPQEICDKYHIIHADIYRWFNISFDIFGRTTTPQQTKITQDIFQQLLKRGFVLQDTVEQLRCEHCARFLADRFVEGVCPFCGYEEARGDQCDKCGKLINAVELKKPQCKVCRSCPVVQSSQHLFLDLPKLEKRLEEWLGRTLPGSDWTPNAQFITRSWLRDGLKPRCITRDLKWGTPVPLEGFEDKVFYVWFDATIGYLSITANYTDQWERWWKNPEQVDLYQFMAKDNVPFHSLVFPCSALGAEDNYTLVSHLIATEYLNYEDGKFSKSRGVGVFGDMAQDTGIPADIWRFYLLYIRPEGQDSAFSWTDLLLKNNSELLNNLGNFINRAGMFVSKFFGGYVPEMVLTPDDQRLLAHVTLELQHYHQLLEKVRIRDALRSILTISRHGNQYIQVNEPWKRIKGSEADRQRAGTVTGLAVNIAALLSVMLQPYMPTVSATIQAQLQLPPPACSILLTNFLCTLPAGHQIGTVSPLFQKLENDQIESLRQRFGGGQAKTSPKPAVVETVTTAKPQQIQALMDEVTKQGNIVRELKAQKADKNEVAAEVAKLLDLKKQLAVAEGKPPEAPKGKKKK
chain 2: MAAAAELSLLEKSLGLSKGNKYSAQGERQIPVLQTNNGPSLTGLTTIAAHLVKQANKEYLLGSTAEEKAIVQQWLEYRVTQVDGHSSKNDIHTLLKDLNSYLEDKVYLTGYNFTLADILLYYGLHRFIVDLTVQEKEKYLNVSRWFCHIQHYPGIRQHLSSVVFIKNRLYTNSH
notes: human cytosolic methionyl-tRNA synthetase (MRS), gene cloned from the cDNA of HEK293 cells; Only MRS carries the Flag tag; It is the bait of the anti-Flag pull-down of the assembled MSC; source: co-expressed from a modified pETDuet-1, purified (Ni-NTA, gel filtration); not shown: Flag, C-terminal, kept
